Common to all, as to assay: cell-based or functional assay
For assay [1], the target named is Elastase.
Assay [2] concerns the target T1, Cathepsin G (UniProt P08311 21-244).
T1 sequence (looked up): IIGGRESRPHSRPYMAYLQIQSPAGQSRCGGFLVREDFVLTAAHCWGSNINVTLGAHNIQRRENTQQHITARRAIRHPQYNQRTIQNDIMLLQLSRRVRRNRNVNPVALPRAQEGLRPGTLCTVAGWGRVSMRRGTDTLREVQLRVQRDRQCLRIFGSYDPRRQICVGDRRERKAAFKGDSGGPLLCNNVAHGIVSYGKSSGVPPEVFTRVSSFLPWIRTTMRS

Assay [3] deals with T2, MMP1 (human, UniProt P03956 100-469, limits assumed).
T2 sequence (looked up): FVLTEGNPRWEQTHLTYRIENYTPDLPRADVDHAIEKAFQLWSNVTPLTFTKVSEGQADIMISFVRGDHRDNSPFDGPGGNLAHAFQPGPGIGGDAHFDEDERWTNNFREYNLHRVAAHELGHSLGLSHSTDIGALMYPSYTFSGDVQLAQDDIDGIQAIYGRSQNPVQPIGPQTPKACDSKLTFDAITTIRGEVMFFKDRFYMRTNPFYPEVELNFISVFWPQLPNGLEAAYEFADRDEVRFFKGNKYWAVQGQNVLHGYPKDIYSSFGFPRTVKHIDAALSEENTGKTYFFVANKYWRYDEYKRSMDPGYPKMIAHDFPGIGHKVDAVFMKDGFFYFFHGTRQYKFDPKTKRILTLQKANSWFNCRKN

Assay [4] deals with MMP8 (human, UniProt P22894 101-467, limits assumed).
Chain of MMP8 (P22894 101-467 limits assumed): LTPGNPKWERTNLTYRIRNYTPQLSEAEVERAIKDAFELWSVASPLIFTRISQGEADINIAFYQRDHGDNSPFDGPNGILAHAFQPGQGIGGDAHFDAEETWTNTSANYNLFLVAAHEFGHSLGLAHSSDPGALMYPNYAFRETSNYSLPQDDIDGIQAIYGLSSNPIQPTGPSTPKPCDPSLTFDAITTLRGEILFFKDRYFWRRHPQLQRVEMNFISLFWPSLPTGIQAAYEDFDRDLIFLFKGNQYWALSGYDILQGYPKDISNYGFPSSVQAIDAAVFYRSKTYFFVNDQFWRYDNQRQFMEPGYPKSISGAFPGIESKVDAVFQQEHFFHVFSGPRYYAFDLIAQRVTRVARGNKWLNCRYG
Assay [5] has as its target T3, MMP2 (human, UniProt P08253 110-660, limits assumed).
T3 sequence (looked up): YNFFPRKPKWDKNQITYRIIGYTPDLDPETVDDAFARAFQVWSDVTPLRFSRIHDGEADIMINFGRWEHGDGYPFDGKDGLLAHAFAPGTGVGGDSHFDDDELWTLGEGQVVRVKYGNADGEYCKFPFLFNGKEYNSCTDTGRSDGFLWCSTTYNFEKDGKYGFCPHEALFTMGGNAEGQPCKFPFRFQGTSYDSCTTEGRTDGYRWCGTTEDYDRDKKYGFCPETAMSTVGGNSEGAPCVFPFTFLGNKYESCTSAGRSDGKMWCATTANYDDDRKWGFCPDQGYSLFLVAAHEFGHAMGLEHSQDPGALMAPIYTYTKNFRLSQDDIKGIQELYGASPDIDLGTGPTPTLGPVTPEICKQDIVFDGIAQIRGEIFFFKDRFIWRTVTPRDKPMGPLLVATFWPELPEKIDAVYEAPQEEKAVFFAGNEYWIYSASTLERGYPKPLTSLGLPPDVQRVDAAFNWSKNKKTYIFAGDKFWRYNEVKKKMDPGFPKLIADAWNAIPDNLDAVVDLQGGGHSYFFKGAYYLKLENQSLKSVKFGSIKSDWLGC

B1: Variant A2M, bait region SEQ ID NO 134 (other)
chain: SVSGKPQYMVLVPSLLHTETTEKGCVLLSYLNETVTVSASLESVRGNRSLFTDLEAENDVLHCVAFAVPKSSSNEEVMFLTVQVKGPTQEFKKRTTVMVKNEDSLVFVQTDKSIYKPGQTVKFRVVSMDENFHPLNELIPLVYIQDPKGNRIAQWQSFQLEGGLKQFSFPLSSEPFQGSYKVVVQKKSGGRTEHPFTVEEFVLPKFEVQVTVPKIITILEEEMNVSVCGLYTYGKPVPGHVTVSICRKYSDASDCHGEDSQAFCEKFSGQLNSHGCFYQQVKTKVFQLKRKEYEMKLHTEAQIQEEGTVVELTGRQSSEITRTITKLSFVKVDSHFRQGIPFFGQVRLVDGKGVPIPNKVIFIRGNEANYYSNATTDEHGLVQFSINTTNVMGTSLTVRVNYKDRSPCYGYQWVSEEHEEAHHTAYLVFSPSKSFVHLEPMSHELPCGHTQTVQAHYILNGGTLLGLKKLSFYYLIMAKGGIVRTGTHGLLVKQEDMKGHFSISIPVKSDIAPVARLLIYAVLPTGDVIGDSAKYDVENCLANKVDLSFSPSQSLPASHAHLRVTAAPQSVCALRAVDQSVLLMKPDAELSASSVYNLLPEKDLTGFPGPLNDQDDEDCINRHNVYINGITYTPVSSTNEKDMYSFLEDMGLKAFTNSKIRKPKMCPQLEQYEMHGPSELEGRGSIPENFFGVKEEEGLGSSEDLVVQIVEEPHTKLRKYFPETWIWDLVVVNSAGVAEVGVTVPDTITEWKAGAFCLSEDAGLGISSTASLRAFQPFFVELTMPYSVIRGEAFTLKATVLNYLPKCIRVSVQLEASPAFLAVPVEKEQAPHCICANGRQTVSWAVTPKSLGNVNFTVSAEALESQELCGTEVPSVPEHGRKDTVIKPLLVEPEGLEKETTFNSLLCPSGGEVSEELSLKLPPNVVEESARASVSVLGDILGSAMQNTQNLLQMPYGCGEQNMVLFAPNIYVLDYLNETQQLTPEIKSKAIGYLNTGYQRQLNYKHYDGSYSTFGERYGRNQGNTWLTAFVLKTFAQARAYIFIDEAHITQALIWLSQRQKDNGCFRSSGSLLNNAIKGGVEDEVTLSAYITIALLEIPLTVTHPVVRNALFCLESAWKTAQEGDHGSHVYTKALLAYAFALAGNQDKRKEVLKSLNEEAVKKDNSVHWERPQKPKAPVGHFYEPQAPSAEVEMTSYVLLAYLTAQPAPTSEDLTSATNIVKWITKQQNAQGGFSSTQDTVVALHALSKYGAATFTRTGKAAQVTIQSSGTFSSKFQVDNNNRLLLQQVSLPELPGEYSMKVTGEGCVYLQTSLKYNILPEKEEFPFALGVQTLPQTCDEPKAHTSFQISLSVSYTGSRSASNMAIVDVKMVSGFIPLKPTVKMLERSNHVSRTEVSSNHVLIYLDKVSNQTLSLFFTVLQDVPVRDLKPAIVKVYDYYETDEFAIAEYNAPCSKDLGNADYKDDDDKGASHHHHHH
Consider B1, for which the “Protease Inhibition (% of WT)” value is 300 % of WT in assay [1], 250 % of WT in assay [2], 200 % of WT in assay [3] and 200 % of WT in assay [4].

B2: Variant A2M, bait region SEQ ID NO 128 (other)
chain: SVSGKPQYMVLVPSLLHTETTEKGCVLLSYLNETVTVSASLESVRGNRSLFTDLEAENDVLHCVAFAVPKSSSNEEVMFLTVQVKGPTQEFKKRTTVMVKNEDSLVFVQTDKSIYKPGQTVKFRVVSMDENFHPLNELIPLVYIQDPKGNRIAQWQSFQLEGGLKQFSFPLSSEPFQGSYKVVVQKKSGGRTEHPFTVEEFVLPKFEVQVTVPKIITILEEEMNVSVCGLYTYGKPVPGHVTVSICRKYSDASDCHGEDSQAFCEKFSGQLNSHGCFYQQVKTKVFQLKRKEYEMKLHTEAQIQEEGTVVELTGRQSSEITRTITKLSFVKVDSHFRQGIPFFGQVRLVDGKGVPIPNKVIFIRGNEANYYSNATTDEHGLVQFSINTTNVMGTSLTVRVNYKDRSPCYGYQWVSEEHEEAHHTAYLVFSPSKSFVHLEPMSHELPCGHTQTVQAHYILNGGTLLGLKKLSFYYLIMAKGGIVRTGTHGLLVKQEDMKGHFSISIPVKSDIAPVARLLIYAVLPTGDVIGDSAKYDVENCLANKVDLSFSPSQSLPASHAHLRVTAAPQSVCALRAVDQSVLLMKPDAELSASSVYNLLPEKDLTGFPGPLNDQDDEDCINRHNVYINGITYTPVSSTNEKDMYSFLEDMGLKAFTNSKIRKPKMCPQLEQYEMHGPSELEGRGSEAIPMSIPTKEEEGLGSIPENFFGVVEEPHTKLRKYFPETWIWDLVVVNSAGVAEVGVTVPDTITEWKAGAFCLSEDAGLGISSTASLRAFQPFFVELTMPYSVIRGEAFTLKATVLNYLPKCIRVSVQLEASPAFLAVPVEKEQAPHCICANGRQTVSWAVTPKSLGNVNFTVSAEALESQELCGTEVPSVPEHGRKDTVIKPLLVEPEGLEKETTFNSLLCPSGGEVSEELSLKLPPNVVEESARASVSVLGDILGSAMQNTQNLLQMPYGCGEQNMVLFAPNIYVLDYLNETQQLTPEIKSKAIGYLNTGYQRQLNYKHYDGSYSTFGERYGRNQGNTWLTAFVLKTFAQARAYIFIDEAHITQALIWLSQRQKDNGCFRSSGSLLNNAIKGGVEDEVTLSAYITIALLEIPLTVTHPVVRNALFCLESAWKTAQEGDHGSHVYTKALLAYAFALAGNQDKRKEVLKSLNEEAVKKDNSVHWERPQKPKAPVGHFYEPQAPSAEVEMTSYVLLAYLTAQPAPTSEDLTSATNIVKWITKQQNAQGGFSSTQDTVVALHALSKYGAATFTRTGKAAQVTIQSSGTFSSKFQVDNNNRLLLQQVSLPELPGEYSMKVTGEGCVYLQTSLKYNILPEKEEFPFALGVQTLPQTCDEPKAHTSFQISLSVSYTGSRSASNMAIVDVKMVSGFIPLKPTVKMLERSNHVSRTEVSSNHVLIYLDKVSNQTLSLFFTVLQDVPVRDLKPAIVKVYDYYETDEFAIAEYNAPCSKDLGNADYKDDDDKGASHHHHHH
For the molecule B2, the “Protease Inhibition (% of WT)” value is 100 % of WT in assay [1], 225 % of WT in assay [2], 400 % of WT in assay [3] and 20 % of WT in assay [5].

(Values after patent publication US20230250154A1 (CYTONICS, published 2023).)
